{"source": "patent US20100239676A1", "about": "“Stable Aerosolizable Suspensions of Proteins in Ethanol” (priority 2000, published 2010)", "test": "Stabilization of insulin suspension in 100% ethanol, activity retained by reversed phase HPLC", "type": "physicochemical", "conditions": "pH 7.4", "protocol": "The conical tubes were then sealed with punctured parafilm, and frozen overnight at ˜−15° C. to −20° C. […] This process was started two or three days prior to the start of the experiment. […] For each sample, there were four (4) time-points prepared. […] The diluted samples were then analyzed by reversed phase HPLC method using standard techniques known to the art. The other time-points were sealed with parafilm. Four (4) different conditions were tested: (i) & (ii) samples were maintained at 37° C. with and without shaking; (iii) samples were maintained at 40° C. with shaking; and (iv) samples were maintained at room temperature with no shaking. A Labline environmental incubator/shaker was used at 37° C. and at 40° C. while shaking at 220 rpm. […] Inversion was used to gently mix.\nPercent activity retained was determined by high-performance liquid chromatography (HPLC)."}
{"substance": "Insulin: Lyophilized human insulin, supplied from Roche Biochemical Co., suspended in 200 proof ethanol", "values": [{"measurement": "Activity Retained (%)", "setting": "2.0 months, 20 °C, shaking NA", "value": 90, "unit": "%"}, {"measurement": "Activity Retained (%)", "setting": "2.0 months, 40 °C, shaking 220 rpm", "value": 55, "unit": "%"}, {"measurement": "Activity Retained (%)", "setting": "2.5 months, 37 °C, shaking NA", "value": 93, "unit": "%"}]}
